Results taken from EP2225268B1.
Each block holds one molecule with its values, some of them ahead of it.

Experiments:
[1] = biological target: Native NGAL purchased from Diagnostics Development (Uppsala, Sweden), non-reduced (UniProt P80188); assay: … sandwich CMIA, capture HYB 211-01, detection acridinium-HYB 211-02; NGAL 600 ng/mL
[2] = biological target: Wild-type recombinant human NGAL dimer calibrators treated with DTT (human) (UniProt P80188); assay: as above
[3] = biological target: Wild-type recombinant human NGAL dimer expressed in CHO cells (human) (UniProt P80188); assay: as above
[4] = biological target: Wild-type recombinant human NGAL monomer expressed in CHO cells (human) (UniProt P80188); assay: as above
[5] = biological target: Wild-type recombinant human NGAL dimer expressed in CHO cells (human) (UniProt P80188); assay: … sandwich CMIA, capture HYB 211-01, detection acridinium-HYB 211-02; calibrator E, NGAL 600 ng/mL
[6] = biological target: Wild-type recombinant human NGAL monomer expressed in CHO cells (human) (UniProt P80188); assay: as above
[7] = biological target: Wild-type recombinant human NGAL dimer calibrators treated with DTT (human) (UniProt P80188); assay: … sandwich CMIA, capture HYB 211-01, detection acridinium-HYB 211-02; curve fit with monomer calibrators; target 250 ng/mL
[8] = biological target: Wild-type recombinant human NGAL dimer expressed in CHO cells (human) (UniProt P80188); assay: as above
[9] = biological target: Wild-type recombinant human NGAL dimer calibrators treated with DTT (human) (UniProt P80188); assay: … sandwich CMIA, capture HYB 211-01, detection acridinium-HYB 211-02; DTT-treated dimer calibrators against untreated dimer calibrators
[10] = biological target: Wild-type recombinant human NGAL dimer expressed in CHO cells (human) (UniProt P80188); assay: … sandwich CMIA, capture 1-2322-455, detection acridinium-1-903-430; NGAL 1000 ng/mL
[11] = biological target: Wild-type recombinant human NGAL monomer expressed in CHO cells (human) (UniProt P80188); assay: as above
[12] = biological target: Wild-type recombinant human NGAL dimer calibrators with TCEP in the reaction mixture (human) (UniProt P80188); assay: … sandwich CMIA, capture 1-2322-455, detection acridinium-1-903-430; TCEP in reaction; NGAL 250 ng/mL
[13] = biological target: Wild-type recombinant human NGAL dimer calibrators with TCEP in the reaction mixture (human) (UniProt P80188); assay: … sandwich CMIA, capture 1-2322-455, detection acridinium-1-903-430; TCEP in reaction; NGAL 600 ng/mL
[14] = biological target: Wild-type recombinant human NGAL monomer expressed in CHO cells (human) (UniProt P80188); assay: … sandwich CMIA, capture 1-2322-455, detection acridinium-1-903-430; monomer calibrator plus TCEP; NGAL 250 ng/mL
[15] = biological target: Wild-type recombinant human NGAL monomer expressed in CHO cells (human) (UniProt P80188); assay: … sandwich CMIA, capture 1-2322-455, detection acridinium-1-903-430; monomer calibrator plus TCEP; NGAL 600 ng/mL
[16] = biological target: Wild-type recombinant human NGAL dimer expressed in CHO cells (human) (UniProt P80188); assay: … sandwich CMIA, capture 1-2322-455, detection acridinium-1-903-430; NGAL Dimer High, 1500 ng/mL dimer calibrator
[17] = biological target: Wild-type recombinant human NGAL dimer expressed in CHO cells (human) (UniProt P80188); assay: … sandwich CMIA, capture 1-2322-455, detection acridinium-1-903-430; curve fit with monomer calibrators; target 50 ng/mL
[18] = biological target: Wild-type recombinant human NGAL monomer expressed in CHO cells (human) (UniProt P80188); assay: as above
[19] = biological target: Wild-type recombinant human NGAL dimer expressed in CHO cells (human) (UniProt P80188); assay: … sandwich CMIA, capture 1-2322-455, detection acridinium-1-903-430; curve fit with monomer calibrators; target 250 ng/mL
[20] = biological target: Wild-type recombinant human NGAL monomer expressed in CHO cells (human) (UniProt P80188); assay: as above
[21] = biological target: Wild-type recombinant human NGAL dimer expressed in CHO cells (human) (UniProt P80188); assay: … sandwich CMIA, capture 1-2322-455, detection acridinium-1-903-430; curve fit with monomer calibrators; target 1000 ng/mL
[22] = biological target: Wild-type recombinant human NGAL monomer expressed in CHO cells (human) (UniProt P80188); assay: as above
[23] = biological target: Wild-type recombinant human NGAL dimer calibrators with TCEP in the reaction mixture (human) (UniProt P80188); assay: … sandwich CMIA, capture 1-2322-455, detection acridinium-1-903-430; TCEP in reaction; curve fit with monomer calibrators; target 250 ng/mL
[24] = biological target: Wild-type recombinant human NGAL monomer expressed in CHO cells (human) (UniProt P80188); assay: … sandwich CMIA, capture 1-2322-455, detection acridinium-1-903-430; monomer calibrator plus TCEP; curve fit with monomer calibrators; target 600 ng/mL
[25] = biological target: Wild-type recombinant human NGAL monomer expressed in CHO cells (human) (UniProt P80188); assay: … sandwich CMIA, capture 1-2322-455, detection acridinium-1-903-430; monomer calibrator plus TCEP; curve fit with monomer calibrators; target 1000 ng/mL

RLUs [1]: 1.07e+06 RLUs
RLUs [2]: 676000 RLUs
RLUs [3]: 282000 RLUs
RLUs [4]: 691000 RLUs
RLUs [5]: 282000 RLUs
RLUs [6]: 691000 RLUs
Curve Fit Results [7]: 236 ng/mL
Curve Fit Results [8]: 71.8 ng/mL
average % increase of NGAL concentration after reduction of dimers [9]: 248%
Molecule: anti-NGAL antibody HYB 211-01 from AntibodyShop A/S, Gentofte, Denmark

RLUs [10]: 993000 RLUs
RLUs [11]: 1.93e+06 RLUs
RLUs [12]: 535000 RLUs
RLUs [13]: 989000 RLUs
RLUs [14]: 928000 RLUs
RLUs [15]: 1.53e+06 RLUs
NGAL concentration detected [16]: 309 ng/mL
Curve Fit Results [17]: 13.5 ng/mL
Curve Fit Results [18]: 48.2 ng/mL
Curve Fit Results [19]: 71.7 ng/mL
Curve Fit Results [20]: 255 ng/mL
Curve Fit Results [21]: 294 ng/mL
Curve Fit Results [22]: 1010 ng/mL
Curve Fit Results [23]: 126 ng/mL
Curve Fit Results [24]: 608 ng/mL
Curve Fit Results [25]: 1030 ng/mL
B1: antibody produced by murine hybridoma cell line 1-2322-455 having ATCC Accession No. PTA-8024 (antibody, V domains shown)
VH: EVQLVESGGGLVQPGGSLKLSCAASGFTFNNYYMSWVRQTPERRLEWVAYISSSGGSTYYSDSVRGRFTISRDTARNTLYLQMTSLKSEDTAMYYCARHFGDYSYFDYWGQGTTLTVSS
VL: DIQMTQSPASLSASVGETVTITCRASENFYSYLAWYQQKQGKSPQLLVYNAKTLAEGVPSRFSGSGSGTQFSLKINSLQPEDFGTYYCQHHYDIPLTFGAGTKLELKR
